The results in this text go back to patent US9586995B2, “Compositions and methods of use for (pro)renin receptor” (University of Utah, priority 2012, dated 2017).

For assay [1], the system named is ENaC. In words: ENaC activity (Ieq, amiloride-sensitive current) in mpkCCD cells. Type of assay: cell-based. Conditions: for acute activation of ENaC by prorenin / second (chronic) phase of prorenin-increased sodium transport / ENaC activity: prorenin 10 nM; for acute activation of ENaC by prorenin: PRO20 1.5 μM, losartan 1.0 μM, apocynin 1 mM, eplerenone 10 mg/L; for second (chronic) phase of prorenin-increased sodium transport / ENaC activity: 6 h to 24 h; for Ieq: 10 nM for 5 min, control group 1.17+0.05. The procedure: FIGS. 32A-H show the role of PRR in the acute regulation of ENaC activity in cultured CD cells. Confluent mpkCCD cells grown on Transwell membrane were pretreated for 30 min with PRO20 (1.5 μM), losartan (1.0 μM), apocynin (1 mM), or eplerenone (10 mg/L) and then treated with AngII (500 nM) or prorenin (10 nM). Ieq was measured by using EVOM and amiloride-sensitive Ieq was determined at the end of experiments. (A) Time course of Ieq changes in control, AngII, and AngII+PRO20 groups. (B) Amiloride-sensitive Ieq measured at 5 min for experiments in (A). (C) Time course of Ieq changes in control, prorenin, and prorenin+PRO20 groups. (D) Amiloride-sensitive Ieq measured at 5 min for experiments in (C). (E) Time course of Ieq changes in control, prorenin, and prorenin+losartan groups. (F) Amiloride-sensitive Ieq measured at 5 min for experiments in (E). (G) Amiloride-sensitive Ieq measured at 5 min in control, prorenin, and prorenin+apocynin groups. (H) Amiloride-sensitive Ieq measured at 5 min in control, prorenin, and prorenin+eplerenone groups. N=6-12 per group. Data are means±SE.
FIGS. 33A-D show the role of PRR in chronic regulation of ENaC by prorenin in cultured CD cells. (A) Time course of Ieq changes in control, prorenin, prorenin+PRO20, and prorenin+losartan groups over 24 h in mpkCCD cells. (B) Time course of changes in Ieq during 24-h aldosterone treatment in mpkCCD cells. (C) Amiloride-sensitive Ieq in mpkCCD cells after exposure for 24 h to 10 nM prorenin in presence or absence of eplerenone. (D) Medium aldosterone concentration in primary rat IMCD cells exposed for 24 h to 10 nM prorenin alone or in combination with 1.5 μM PRO20 or 1.0 μM losartan.
Electrophysiology experiments were performed on the immortalized mpkCCD cells once the cell monolayers reached confluence. The transepithelial voltage (Vte) and resistance (Rte) across cell monolayers were measured with an epithelial volt-ohmmeter (World Precision Instruments). The transepithelial current was calculated according to Ohm's law, Ite=Vte/Rte, and normalized by the surface area of the insert. AngII (500 nM) or prorenin (10 nM) was added to the apical side of the inserts, and amiloride (10 μM) was added at the end of experiments to calculate amiloride-sensitive sodium current as the difference between total current and amiloride-insensitive current.

Assay [2] relates to PRR. Kind of assay: ICV infusion pressor response in WT and neuron-specific PRR knockout (Nefh-PRR) mice, telemetry. Type of assay: in vivo, mouse. The note with it: for ΔMAP, pressor response to ICV infusion: Nefh-PRR mice, ICV 100 ng/ul at 0.3 ul/minute for 10 minutes. The procedure: (§1) FIG. 6 is a series of graphs illustrating the pressor response to intracerebroventricular (ICV) infusion of carbachol (FIG. 6A), Ang II (FIG. 6B), renin (FIG. 6C), and prorenin (FIG. 6D) in wild-type (WT) and Nefh-PRR mice. WT and Nefh-PRR mice were implanted with telemetric transmitters and ICV cannula. Two weeks after recovery, mice were ICV infused (0.3 μl/min) with carbachol (100 ng/μl), Ang II (100 ng/μl), Ang II (100 ng/μl), +losartan (10 ng/μl), mouse renin (100 ng/μl), mouse prorenin (100 ng/μl), or mouse prorenin (100 ng/μl) +losartan (10 ug/μl) over 10 minutes. Blood pressure (BP) was recorded in conscious freely moving mice. *P<0.05 vs. WT.
(§2) Neuron-specific PRR knockout mice (Nefh-PRR) and wildtype (WT) littermates (N=5/group) were each implanted with a telemetric probe for blood pressure (BP) recording and an intracerebroventricular (ICV) cannula for infusion of mouse prorenin (100 ng/ul), mouse renin (100 ng/ul), or an Ang II type 1 receptor (AT1R) blocker (losartan, 10 ug/ul) at 0.3 ul/minute for 10 minutes. Mouse prorenin infusion increased the BP (mmHg) in WT mice (ΔMAP: 41±5); however, the prorenin induced pressor response was abolished in Nefh-PRR mice (ΔMAP: 5±1).

The target in assay [3] is T1, PRR (Mus musculus, UniProt Q9CYN9). In words: Prorenin-induced pressor response with ICV PRR antagonist peptides in C57BI/6J mice. The assay is classed as in vivo. Also on record: from tissue; host or cells: brain of living C57Bl/6J mice (ICV infusion). Conditions: ICV mouse prorenin 100 ng/ul alone or with peptide 45 ng/ul, 0.3 ul/minute for 10 minutes. The method, then: C57BI/6J mice (N=5/group) were each implanted with a telemetric probe for BP recording and an intracerebroventricular (ICV) cannula for infusion of mouse prorenin (100 ng/ul), PR10, or PR20 (45 ng/ul) at 0.3 ul/minute for 10 minutes. Mouse prorenin infusion increased the BP (mmHg) in WT mice (ΔMAP: 31.3±1.1); however, the prorenin-induced pressor response was abolished in either PR10 (ΔMAP: 16.9±4.4 vs. prorenin) or PR20 (ΔMAP: 12.7±0.5 vs. prorenin) infused mice.
T1 sequence (Q9CYN9 18-350): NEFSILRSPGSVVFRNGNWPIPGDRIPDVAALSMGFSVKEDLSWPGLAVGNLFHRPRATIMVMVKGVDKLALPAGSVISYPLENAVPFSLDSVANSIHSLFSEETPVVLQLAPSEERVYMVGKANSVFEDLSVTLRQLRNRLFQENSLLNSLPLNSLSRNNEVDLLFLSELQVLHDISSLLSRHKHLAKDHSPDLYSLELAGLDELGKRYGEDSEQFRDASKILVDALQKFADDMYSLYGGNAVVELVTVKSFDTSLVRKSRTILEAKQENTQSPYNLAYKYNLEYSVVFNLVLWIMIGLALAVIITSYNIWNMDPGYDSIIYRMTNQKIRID

In assay [4] the target is T1, PRR. In words: ICV infusion pressor response in WT and neuron-specific PRR knockout (Nefh-PRR) mice, telemetry. The assay is classed as in vivo. More on the design: Neuron-specific PRR knockout mice (Nefh-PRR) and wildtype (WT) littermates (N=5/group) were each implanted with a telemetric probe; from tissue; host or cells: brain of living WT and Nefh-PRR mice (ICV infusion). The note with it: WT mice; ICV 100 ng/ul at 0.3 ul/minute for 10 minutes. The procedure:
as §1, §2

For the molecule `COc1cc(C(C)=O)ccc1O` [apocynin], the “acute activation of ENaC by prorenin” value in assay [1] is given as “completely abolished”.

As for `COC(=O)[C@@H]1CC2=CC(=O)CC[C@]2(C)[C@@]23O[C@@H]2C[C@@]2(C)[C@@H](CC[C@@]24CCC(=O)O4)[C@H]13` [eplerenone], in assay [1], the “second (chronic) phase of prorenin-increased sodium transport / ENaC activity” value is on record as “effectively blocked” and the “acute activation of ENaC by prorenin” value is reported as “unaffected”.

For `CCCCc1nc(Cl)c(CO)n1Cc1ccc(-c2ccccc2-c2nn[nH]n2)cc1` [losartan], in assay [2] (ICV losartan 10 ug/ul), the “pressor response induced by prorenin or renin” value was “completely blocked”. Besides, in assay [1], the “second (chronic) phase of prorenin-increased sodium transport / ENaC activity” value is recorded as “not” and the “acute activation of ENaC by prorenin” value is reported as “not”.

IFDNIISQGVLKEDVF (PRR antagonist PR10): the “ΔMAP, prorenin-induced pressor response” value in assay [3] came to 16.9±4.4 mmHg.

Take “LPTDTTTFKRIFLKRMPSI (PRR antagonist) [PR20]”: the “ΔMAP, prorenin-induced pressor response” value in assay [3] stood at 12.7±0.5 mmHg.

With renin, the Ieq in assay [1] is reported as 1.58+0.19 μA/cm2.

B1: mouse prorenin: mouse prorenin, ligand of PRR, infused ICV (protein)
chain: LPTRTATFERIPLKKMPSVREILEERGVDMTRLSAEWGVFTKRPSLTNLTSPVVLTNYLNTQYYGEIGIGTPPQTFKVIFDTGSANLWVPSTKCSRLYLACGIHSLYESSDSSSYMENGSDFTIHYGSGRVKGFLSQDSVTVGGITVTQTFGEVTELPLIPFMLAKFDGVLGMGFPAQAVGGVTPVFDHILSQGVLKEEVFSVYYNRGSHLLGGEVVLGGSDPQHYQGNFHYVSISKTDSWQITMKGVSVGSSTLLCEEGCAVVVDTGSSFISAPTSSLKLIMQALGAKEKRIEEYVVNCSQVPTLPDISFDLGGRAYTLSSTDYVLQYPNRRDKLCTLALHAMDIPPPTGPVWVLGATFIRKFYTEFDRHNNRIGFALAR
B1: the entries for the “ΔMAP, pressor response to ICV infusion” value in assay [4] and in assay [2] were 41±5 mmHg and 5±1 mmHg, respectively. The “ΔMAP, prorenin-induced pressor response” value in assay [3] is 31.3±1.1 mmHg.

B2: prorenin: prorenin added at 10 nM to mpkCCD cells; species not stated (protein)
chain: LPTRTATFERIPLKKMPSVREILEERGVDMTRLSAEWGVFTKRPSLTNLTSPVVLTNYLNTQYYGEIGIGTPPQTFKVIFDTGSANLWVPSTKCSRLYLACGIHSLYESSDSSSYMENGSDFTIHYGSGRVKGFLSQDSVTVGGITVTQTFGEVTELPLIPFMLAKFDGVLGMGFPAQAVGGVTPVFDHILSQGVLKEEVFSVYYNRGSHLLGGEVVLGGSDPQHYQGNFHYVSISKTDSWQITMKGVSVGSSTLLCEEGCAVVVDTGSSFISAPTSSLKLIMQALGAKEKRIEEYVVNCSQVPTLPDISFDLGGRAYTLSSTDYVLQYPNRRDKLCTLALHAMDIPPPTGPVWVLGATFIRKFYTEFDRHNNRIGFALAR
For B2, the Ieq in assay [1] is 3.16+0.07 μA/cm2.

B3: mouse renin: mouse renin, infused ICV (protein, UniProt P06281 72-402, looked up)
Renin-1: SPVVLTNYLNTQYYGEIGIGTPPQTFKVIFDTGSANLWVPSTKCSRLYLACGIHSLYESSDSSSYMENGSDFTIHYGSGRVKGFLSQDSVTVGGITVTQTFGEVTELPLIPFMLAKFDGVLGMGFPAQAVGGVTPVFDHILSQGVLKEEVFSVYYNRGSHLLGGEVVLGGSDPQHYQGNFHYVSISKTDSWQITMKGVSVGSSTLLCEEGCAVVVDTGSSFISAPTSSLKLIMQALGAKEKRIEEYVVNCSQVPTLPDISFDLGGRAYTLSSTDYVLQYPNRRDKLCTLALHAMDIPPPTGPVWVLGATFIRKFYTEFDRHNNRIGFALAR
B3: the “ΔMAP, pressor response to ICV infusion” value in assay [4] is reported as 31±5 mmHg; in assay [2], 27±2 mmHg.
